Results on four substances are retold here after doi:10.1101/2022.05.11.491540.

Read-outs that look alike come from different tables or passages of the source.

Data set [1] relates to Sirt7 (Sirt7WT) (human). Description: fluorescence polarization. For orientation: Polarisation of emitted light reports the rotation of a fluorescent probe.
A further data set relates to Sirt7-CLB (human). Description: NanoLuc complementation.
In data set [2] the test system is isolated NanoLuc Large Bit. Description: NanoLuc complementation.
In data set [3] the test system is Sirt7 (Sirt7WT) (human). Description: kinetic titration.

Turning to 20 bp FAM-DNA, in the data set on Sirt7 (Sirt7WT) (human) [1], the Kd stood at 57.2 nM.

On to “SMB-AcNucs (H3K18Ac small-bit nucleosome)”, for which, in the data set with Sirt7-CLB (human) (histone H3K18 acetylation), the Kd is 3.75 nM and the binding signal (fold lower Kd than without ADPr) was 2.5. For the substance “SMB-Nucs (unmodified small-bit nucleosome)”, the Kd in the data set on Sirt7-CLB (human) was 3.92 nM; in data set [2], more than 5000 nM. As to nucleosome core particle (unmodified), the Kd in the data set on Sirt7 (Sirt7WT) (human) [3] turned out to be 2.92 nM.

What is called Kd is the equilibrium constant for the complex coming apart. Read a high Kd as a looser complex.
